Measured values reported in patent US20140242072A1, “ANTI-ICAM-1 ANTIBODIES TO TREAT MULTIPLE-MYELOMA RELATED DISORDERS” (BIOINVENT INTERNATIONAL AB, priority 2011, published 2014).

Experiments:
[1] = target: T1, Intercellular Adhesion Molecule-1 (ICAM-1) (human, UniProt P05362 28-532); experiment: flow cytometry (FACS) on bone marrow plasma cells of patients with PC, PCL or AL
T1 construct: whole, on cells; Endogenous ICAM-1 on primary patient cells; also called CD54

[2] = target: T2, ICAM-1 (BI-AB epitope) on cells from multiple-myeloma-related disorders (Homo sapiens, UniProt P05362); experiment: BI-AB epitope expression on bone marrow cells of patients with multiple-myeloma-related disorders by flow cytometry; format: binding; details: FACS
T2 construct: endogenous in cells; host or cells: primary bone marrow cells (plasma cells) from patients with plasmacytoma, plasma cell leukemia or light chain amyloidosis
Text: FIG. 1: BI-AB epitope expression in a cohort of patients with plasma cell disorders, consecutively analysed at Lund University Hospital, Sweden. • Pat no (Patient number); M (male); F (female); Ig (immunoglobulin class of M-component); M comp (monoclonal Ig component in serum); Skel. destr (number of skeletal destruction as measured by X-ray); n/a (not available); MM-cells (cells from multiple-myeloma-related disorders counted as % of all nucleated cells in bone marrow smears); ISS (International Staging System of MM); T (number of different MM treatment regimes before BI-AB analysis); Diagnosis; AL (amyloid light chain amyloidosis); PCL (plasma cell leukemia); PC (plasmacytoma); Expression level (BI-AB epitope expression level measured by FACS on cells from multiple-myeloma-related disorders: +++ (very highly positive), ++ (highly positive), + (positive) or − (negative); Positive MM cells (BI-AB epitope positive cells from multiple-myeloma-related disorders as measured by FACS).
We evaluated expression of the BI-AB epitope on bone marrow cells in patients with multiple-myeloma-related disorders (plasmacytoma, plasma cell leukemia, and light chain amyloidosis) by flow cytometry (FIG. 1).
Cells from multiple-myeloma-related disorders were identified using fluorescent antibodies against the following surface antigens CD38, CD138, CD45 and CD56 according to European Myeloma Network guidelines on multiparametric flow cytometry in MM (Rawstron et al., 2008) and confirming monoclonal cells from multiple-myeloma-related disorders with intracellular staining of lambda and kappa light chains.

T2 sequence (P05362 28-532): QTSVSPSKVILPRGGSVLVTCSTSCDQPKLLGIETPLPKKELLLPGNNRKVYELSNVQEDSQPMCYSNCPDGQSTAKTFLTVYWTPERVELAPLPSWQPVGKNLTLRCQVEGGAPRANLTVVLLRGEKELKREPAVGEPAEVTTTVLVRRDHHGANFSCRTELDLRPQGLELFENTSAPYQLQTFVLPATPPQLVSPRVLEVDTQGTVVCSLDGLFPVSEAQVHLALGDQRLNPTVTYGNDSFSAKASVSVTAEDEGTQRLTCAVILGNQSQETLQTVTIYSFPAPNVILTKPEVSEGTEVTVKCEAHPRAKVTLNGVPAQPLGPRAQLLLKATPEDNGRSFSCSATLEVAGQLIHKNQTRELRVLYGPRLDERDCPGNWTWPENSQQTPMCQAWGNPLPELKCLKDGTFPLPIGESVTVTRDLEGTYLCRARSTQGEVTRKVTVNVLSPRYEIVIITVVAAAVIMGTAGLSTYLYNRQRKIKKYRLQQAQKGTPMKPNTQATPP
T1 sequence (P05362 28-532): as above

binding result [1]: binds
median BI-AB epitope expression level relative to normal B cells from the same patients ([2]; cells from multiple-myeloma-related disorders vs normal B cells): 10 times higher
BI-AB epitope expression level on cells from multiple-myeloma-related disorders ([2]; patient bone marrow cells): very highly expressed
B1: BI-AB antibody (antibody, V domains shown)
VH: EVQLLESGGGLVQPGGSLRLSCAASGFTFSNAWMSWVRQAPGKGLEWVAFIWYDGSNKYYADSVKGRFTISRDNSKNTLYLQMNSLRAEDTAVYYCARYSGWYFDYWGQGTLVTVSS
VL: QSVLTQPPSASGTPGQRVTISCTGSSSNIGAGYDVHWYQQLPGTAPKLLIYDNNNRPSGVPDRFSGSKSGTSASLAISGLRSEDEADYYCQSYDSSLSAWLFGGGTKLTVLG
notes: It says the antibody was described previously in WO 2007/112110; also called exemplary antibody of the invention
BI-AB epitope positive cells from multiple-myeloma-related disorders ([2]; all patients with plasmacytoma, plasma cell leukemia or light chain amyloidosis): expressed the BI-AB epitope on most cells
